Measured values published in the DeepSol protein solubility set.

Experiment: soluble on expression in E. coli; label from the status in PepcDB or PDB records

Sequence | soluble on expression in E. coli
MKINWTEVKEKIRPQISKPSYETWFTNTTVYLEDDILTIYCPNEFARDWLESHYKELVFNTLREMFNTTFEIQFDLCNGEPSNLKDVQKEKLSSWDEVKKALRPKIAEKTFMTWIRNTNATIKDNKVIIFCEDAFHRDLLEGEYKNIISSTVQKITDEEYQIWFEIESSATSNAQVHHVKNNQRTSGQEESKTIWNKIKDKIQLKISRPSYETWVKETTARINEDSLIIYFENEFQQEWVKKSYKDLISQIAKELTGNTYEIQFELKSNTTSNNEKSTIKDITSELGEQFKVSNNSLKYNDVDESNKRIRALEEKIMNLEKVIGTLVEKLDAVELKTQLEKLEHHHHHH | not soluble
MKIRVADEKELPMILQFLTEVKAYMDVVGITQWTKDYPSQGDIQEDITKKRLYLLVHEEMIFSMATFCMEQEQDFVWLKRFATSPNYIAKGYGSLLFHELEKRAVWEGRRKMYAQTNHTNHRMIRFFESKGFTKIHESLQMNRLDFGSFYLYVKELENQSIV | soluble
MKITLIIPTYNAGSLWPNVLDAIKQQTIYPDKLIVIDSGSKDETVPLASDLKNISIFNIDSKDFNHGGTRNLAVAKTLDADVIIFLTQDAILADSDAIKNLVYYFSDPLIAAVCGRQLPHKDANPLAVHARNFNYSSKSIVKSKADIEKLGIKTVFMSNSFAAYRRSVFEELSGFPEHTILAEDMFMAAKMIQAGYKVAYCAEAVVRHSHNYTPREEFQRYFDTGVFHACSPWIQRDFGGAGGEGFRFVKSEIQFLLKNAPFWIPRALLTTFAKFLGYKLGKHWQSLPLSTCRYFSMYKSYWNNIQYSSSKEIKLEHHHHHH | soluble
MKITTEALRWWEDGETVGGRDLVGGGTWLGCTRHGRLAFLTNFKEASSFPAAKSRGDLPLRYLQSEKSPAEFAEEIQDEISLYNGFNLVVAHVLSKSMIYITNRPPHGDKLVTQVSPGIHVLSNANLDSPWPKVNSPNCVFLSLQCLRLREGFQQLLAENGSGEFPVKTMVEEVMTNTVKDEETELPHVFTPETEYHLSSIFVDMQRPTGRYGTRSISAIIVKSHGDGGGDGEICFYERHLEEGDSWKEHTQQFVIIQNQSI | soluble
MKIVGIYLAAGKSRRTGPGLHKLYLPTGNTLLGNKALHTSLSSNLSDVIVVSNQPSWLLHYTQVERVHILSCEKSCLGQSYSLHCGLEKAESMNADGVVVMLADQPFITVKLLNSLIDSYEHLPQLDYVAASFQGIPQPPILFSKGIFPSLKKLKGDQGARSIFFDKSFQGKITVYSDAKLFYDVNTIEDYNVIKNSLLLEHHHHHH | not soluble
MKKAKSRIAILGTGGTIAGFIDSTIATTGYAAGAIDIDVLIKAVPQIRDLADISWEQIANIDSSNMCDEIWLRLAKKIAKLFAEGIDGVVITHGTDTMEETAYFLNLTIKSDKPVVLVGAMRPSTAISADGPKNLYNAVALVVNKEAKNKGVMVAINDKILSARGVVKTHSLNVDAFSSPDFGDLGYIVDGKVFFYNNVIKAHTKNAPFDVSKLTSLPKVDILYSYSNDGSGVAAKALFEHGTKGIVVAGSGAGSIHKNQKDVLKELLKKGLKVVVSSRVVAGCVAVSDSDEKLGFISAEDLNPQKARVLLMLALTKTSDPKKIQEYFLKY | soluble
MKKATCLTDDQRWQSVLARDPNADGEFVFAVRTTGIFCRPSCRARHALRENVSFYANASEALAAGFRPCKRCQPDKANPRQHRLDKITHACR | soluble
MKKDTDCTEILVGKTASMDGSTIVARNEDGYGPINPIKFIVHEAHDQTNASYTSVTTGVTVPLPDHAYRYTATPQADQSDGQYEEAGINELNVGMSATETTATNARVLGYDPLVHDGVDEEAMVTLVLPYIKSAKEGVQRLGALIEKYGTGESNSIAFNDHDDIWLFETAGGHHWGAVRMPEDTYAIVPNQTVVQEMDLNDTDNFLGASDLVDFVEKYHLNPTPGHFNFREIFGTQSEADAYYNTPRTWYGQKLFNPEIEQNPTDQNMPLFRQPSKKLAIEDVQFFLSSHYNGTPYDPFGTFASGNAREQTRYRSIAMDRNQCSSILQIRNDVPAKQAAIQWIALGFFAYAPYVPFFTNINDTPIDYRNTTSTVSVDNVYWLSKTLSVLIEPHWHEFAETVNAYRDECQSYARGRVAATDAAIAGNPTDFLTKANSETAAEISNRTHALFDTLVKQGLLLSKTTWEKGQNLLEHHHHHH | not soluble
MKKFTCVQDIGDLKSALAESFEIKKDRFKYVELGRNKTLLMIFFNSSLRTRLSTQKAALNLGMNVIVLDINQGAWKLETERGVIMDGDKPEHLLEAIPVMGCYCDIIGVRSFARFENREYDYNEVIINQFIQHSGRPVFSMEAATRHPLQSFADLITIEEYKKTARPKVVMTWAPHPRPLPQAVPNSFAEWMNATDYEFVITHPEGYELDPKFVGNARVEYDQMKAFEGADFIYAKNWAAYTGDNYGQILSTDRNWTVGDRQMAVTNNAYFMHCLPVRRNMIVTDDVIESPQSIVIPEAANREISATVVLKRLLENLPHHHHHH | soluble
MKKGCKYGTHRVIEPAGVLPQPAKKISNDMEIFSNEILIDVIALNIDSASFTQIEEEAGHDVEKVKAKIKEIVAERGKMQNPVTGSGGMLIGTVEKIGDDLVGKTDLKVGDKIATLVSLSLTPLRIDEIINIKPEIDRVEIKGKAILFESGIYAVLPKDMPENLALAALDVAGAPAQVAKLVKPCQSVAILGSAGKSGMLCAYEAVKRVGPTGKVIGVVRNDKEKALLQRVSDKVKIVIADATKPMDVLHAVLEANDAKEVDVAINCVNVPNTEMSTILPVKEFGIAYFFSMATGFSKAALGAEGVGKDITMIVGNGYTVDHAAITLEELRESAVLREIFNEIYLLEHHHHHH | soluble
MKKIGIIGGGQLGKMMTLEAKKMGFYVIVLDPTPRSPAGQVADEQIVAGFFDSERIEDLVKGSDVTTYDLEHIDVQTLKKLYNEGYKIHPSPYTLEIIQDKFVQKEFLKKNGIPVPEYKLVKDLESDVREFGFPVVQKARKGGYDGRGVFIIKNEKDLENAIKGETYLEEFVEIEKELAVMVARNEKGEIACYPVVEMYFDEDANICDTVIAPARIEEKYSKIAREIATSVVEALEGVGIFGIEMFLTKQGEILVNEIAPRPHNSGHYTIEACVTSQFEQHIRAIMNLPLGSTELLIPAVMVNLLGEEGYYGKPALIGLEEALAIEGLSLHFYGKKETRPYRKMGHFTVVDRDVERALEKALRAKKILKVVSEEGAMCQG | soluble
MKKIMTIFGTRPEAIKMAPLVKALEQEKMLEPIVVVTAQHREMLDSVLSTFEIKPKYDLNIMKSGQTLSEITSKSITQLEQVIQLEKPDMVLVHGDTMTTFAGGLAAFYNQVPIGHVEAGLRSYDKYSPFPEEVNRQLVGVLADLHFAPTKNAASHLLSEGKYSESVVVTGNTAIDAMKYTVDDNYKSNIMDKYHDKKFILMTAHRRENIGKPMENIFKAVRRLIDEYTDLALVYPMHKNPKVREVAQKILGSHDRIELIEPLDVVDFHNFAKKSYFILTDSGGIQEEAPSFNKPVLVLRSVTERPEGVEAGTLKVIGTNKQNVYQAAKELIDDERLYHQMSEASNPYGDGFASERIVNHIKYYLNLITEKPSDF | not soluble
MKKIVTATIATAGLATIAFAGHDAQAAEQNNNGYNSNDAQSYSYTYTIDAQGNYHYTWTGNWNPSQLTQNNTYYYNNYNTYSYNNASYNNYYNHSYQYNNYTNNSQTATNNYYTGGSGASYSTTSNNVHVTTTAAPSSNGRSISNGYASGSNLYTSGQCTYYVFDRVGGKIGSTWGNASNWANAAASSGYTVNNTPKVGAIMQTTQGYYGHVAYVEGVNSNGSVRVSEMNYGHGAGVVTSRTISANQAGSYNFIHLEHHHHHH | not soluble
MKKKKLFLGTIISCVVLALSACGSSDNVVTSKVGNITEKELSKELRQKYGESTLYQMVLSKALLDKYKVSDEEAKKQVEEAKDKMGDNFKSTLEQVGLKNEDELKEKMKPEIAFEKAIKATVTEKDVKDNYKPEMKVSHILVKDEKTAKEVKEKVNNGEDFAALAKQYSEDTGSKEQGGEITGFAPGQTVKEFEEAAYKLDAGQVSEPVKTTYGYHIIKVTDKKELKPFDEVKDSIRKDIEQQRLQDTTGKWKQQVVNELLKDADIKVNDKEFKNTFEFLEKK | not soluble
MKKLAVLFMCAAMLASCDFKGGSKDLKAENDSLLMELTQRNAELDDMMGTFNEVQEGFRKINAAESRVDLQRGTITENSASAKQQIASDIEFISKQMEENKAQIAKLEAQLKNSKYNSTQMKKAVEALTAELKAKQQRIEELQTELASKNIRIQELDAAVSDLSAAKESLAAENEAKAKTVAEQDKSLNAAWFVFGTKSELKAQKILQSGDVLKSADFNKDYFTQIDIRTTKEIKLYSKRAELLTTHPTGSYELVKDDKGQLTLKITNPAEFWSVSRYLVIQVK | not soluble
MKKLFFIMAMSVCAFTAQAQTTSGIRVGLNMTSATGKYNDLMADQDYNNKSYMGYSIHYFIDVPVIGNFSIQPAVGLSMKGITYEYDKFTTKKSHRLDLDSYKKYDVTESRGTSVTQKHNLGYLDVPILFAYALPLSESFRVQLGVGPYFSYGLFGKFKYESDKYLTVSPDKYGENKHTITKDDYPSFGKNDDADDPKGNINRFDWGIAVQGSIYWKRLFLNVAYQKGLKSANITDEKNEGKDKLALSNLSLGLGFIF | not soluble
MKKRIIPIFVPHKGCPHDCIFCNQKKITGVSTDVTSEDARNIIEECLETIDKDADVEIAFFGGSFTAIDIDIQKSLLSVAKEYVEKGLVKDIRMSTRPDCIDEDILSMLKEYKTSIIELGVQSLDEKVLLDSIRGHQSEIVYKSSKMIKNSGIKLGLQMMIGLPADTEEKCIFTAKKFVELKPDCVRVYPTLVVKDTGLEKLMEQNKYNPFTLEESVNIVKKVLVLFYVNNINVIRVGLQATDDIQIGKAVLAGPYHPAFRELVEADMIKDYLEFVILQNKNIKQMLVKSNKKNISKIIGNKKTNVKYMEEKFGVLLKTQESDLDINQLEIVLDGKSLISANMRDIHRKLYDIYDL | not soluble
MKKSLGARTLAYPTPLFLVGTYDRDSRPNIMAAAWAGICCSQPPSIAVSLRKATYTYRSITERGAFTISIPSRAYVRHADYAGIYSGENEDKFASLGLTPVPGEHVDAPYVGEFPMAIELKLIHQIEIGLHTQFIGEIMDVKVDESCLRDDGLPDINKVDPVIFAPVSREYYAVGEFLAKAFSAGKGLRS | soluble
MKKTFEKVYHLKLSIKGITPQIWRRIQVPENYTFLDLHKAIQAVMDWEDYHLHEFEMVNPKTGMLDKIGAEGDDFDAFGGPLVSEKKAKLSDYFTLENKEALYTYDFGDNWQVKVRLEKILPRKEGVEYPICTAGKRAAVPEDSGGVWGYEEMLEVLKDSEHEEYEDTVLWLGDDFDPEYFDPKDVSF | soluble
MKKVELLAPAGNLEKLKMAVLYGADAVYLGGEEFSLRAYAENFTLDELKAGVEFAHSKGKKVYVTINIFPHNDDLKKIPEYIKEVAGIGVDAIILSDPGILSIVKEIAPDMEIHLSTQANNTNFMSARFWHNHGVKRIILARELSLEEIREIREKTPDSLELEVFVHGAMCISYSGRCLLSNYMAGRDSNRGLCAHPCRWKYYLMEEKRPGEYYPVYENERGTFIFNSRDLCMIEHIPELVESGVSSFKIEGRMKSSFYVATVVKAYREAIDAYYEDKDNYKFDPRLLEEVCKVSHREFTTGFFFNKPGPKDQIYATSSYIREYDFVGVVQKYDKATKIATVEQRNRMYKGEEIEVVNPKGNFFVQKIEWMKNADGEDIDVAPHPQMTVYMPMKEDVEEFAMLRRKSSPNK | soluble
MKKVFDVWDVETAKRFLEIIKDEPIYYPALIALHTGMRAGEILSLKWCDVNFETRVISIVKSERKNRGLKTVNLKTKTSKRAVYMNDILYKELKNLYEITKPKPDDFVCPRLPTGNLTVNYLSRKFKKLVKKHNFPLIRFHDLRHTFATLMLSLGVNTKIVAEILGHSDIKLTADTYSHVLPTMQEEAMKEFVKLWKLEHHHHHH | soluble
